Laboratory results from patent publication US20240309110A1 (DANMARKS TEKNISKE UNIVERSITET, published 2024).
No end group written: not given here.

Key:
[1] = molecular target: T1, MUC1 20-mer glycopeptide no. 24 of Table 5 (VTSAPDTRPAPGSAAPPAHG, Thr to Ala) (GalNAc sites are shown in bold and underlined in Table 5; the marks are lost in the text); assay: glycopeptide microarray
T1 peptide: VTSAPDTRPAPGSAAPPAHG

[2] = molecular target: T2, AHGVTSAPDTR (T13 and S14 carry GalNAc (Tn), bold and underlined on the sheet); assay: glycopeptide microarray (20-mer MUC1 Tn-glycopeptides printed on a chip), RFU as heat map
T2 construct: also called MUC1 20-mer glycopeptide no
T2 peptide: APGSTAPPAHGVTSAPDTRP

[3] = molecular target: T3, PAPGSTAAPAH (S13 and T14 carry GalNAc (Tn), bold and underlined on the sheet); assay: as above
T3 construct: also called MUC1 20-mer glycopeptide no
T3 peptide: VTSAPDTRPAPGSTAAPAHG

[4] = molecular target: MUC1 20-mer glycopeptide no. 29 of Table 5 (…, no Ala substitution) (GalNAc sites are shown in bold and underlined in Table 5; the marks are lost in the text); assay: as above
Chain of MUC1 20-mer glycopeptide no. 29 of Table 5 (…, no Ala substitution) (GalNAc sites are shown in bold and underlined in Table 5; the marks are lost in the text) (peptide, as listed by the source): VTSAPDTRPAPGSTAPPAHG

[5] = molecular target: T4, MUC1 peptide no 1 (bisTn-MUC1): Btn-Ahx-SAPDTRPAPGS*T*APPAHGVTSAPD-OH (N-terminal Btn-Ahx (biotin-aminohexyl); GalNAc (Tn) on the Ser and the Thr marked * in GS*T*AP); assay: glycopeptide microarray
T4 construct: Synthetic MUC1 glycopeptide; also called peptide 1; target peptide 1
T4 peptide: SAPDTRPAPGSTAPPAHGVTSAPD

[6] = molecular target: T5, MUC1 peptide no 12 (monoSTnMUC1): GSTAP; assay: glycopeptide microarray, signal as heat map
T5 construct: also called glycopeptide 12
T5 peptide: GST(Neu5Ac(a2-6)GalNAc)AP

[7] = molecular target: T6, MUC1 peptide no 11 (bisSTnMUC1): GSTAP (not fully specified (residue 2)); assay: glycopeptide microarray, signal as heat map
T6 construct: also called glycopeptide 11
T6 peptide: GST(Neu5Ac(a2-6)GalNAc)AP

[8] = molecular target: T4, MUC1 peptide no 1 (bisTn-MUC1): …; assay: glycopeptide microarray, bar chart with single points [panel C4]
[9] = molecular target: T4, MUC1 peptide no 1 (bisTn-MUC1): …; assay: glycopeptide microarray, bar chart with single points [panel C7]
[10] = molecular target: T4, MUC1 peptide no 1 (bisTn-MUC1): …; assay: glycopeptide microarray, bar chart with single points [panel D3]

B1: scFv 5E5 (scFv, V domains shown)
VH: QSDAELVKPGSSVKISCKASGYTFTDHAIHWVKQKPEQGLEWIGHFSPGNTDIKYNDKFKGKATLTVDRSSSTAYMQLNSLTSEDSAVYFCKTSTFFFDYWGQGTTLTVSS
VL: ELVMTQSPSSLTVTAGEKVTMICKSSQSLLNSGDQKNYLTWYQQKPGQPPKLLIFWASTRESGVPDRFTGSGSGDFTLTISSVQAEDLAVYYCQNDYSYPLTFGAGTKLELK
notes: Single chain Fv in the microarray; also called svFV 5E5
**Q.** What does the source list for B1?
**A.** binding result [1]: no binding; binding result [2]: no binding; binding result [3]: no binding

B2: scFv 2D9Chi (scFv, V domains shown)
VH: not shown
VL: DIVMSQSPSSLAVSVGEKVTMSCKSSQSLLYSSDQKNYLAWYQQKPGQSPKLLIYWASTRESGVPDRFTGSGSGTDFTLTISSVKAEDLAVYYCQQCYSYPFTFGSGTKLERKR
notes: 2D9Chi comprises the 2D9 VL domain and G2D11 VH domain
**Q.** Does B2 bind [4]?
**A.** no binding

B3: scFv G2D11 mutant M1 (LAL) (scFv)
scFv: DVVMTQSHKFMSTSVGDRVSITCKASQDVGTAVAWYQQKPGQSPKLLIYWASTRHTGVPDRFTGSGSGTDFTLTISNVQSEDLADYFCQQYSSYPLTFGGGTKLEMKRGGGGSGGGGSGGGGSGGGGSQVQMQQSDAELVKPGASVKISCKASGYIFADHAIHWVKRKPEQGLEWIGYISPGNDDIKYNEKFKGKATLTADKSSSTAYMQLNSLTSEDSAVYFCKRSLLALDYWGQGTTLTVSS
notes: Mutant of scFv G2D11 with the mutations in the VH domain; '-' stands for the deletion of G102; also called LAL mutant M1
**Q.** Does B3 bind [5]?
**A.** no binding

**Q.** Does B3 bind [6]?
**A.** no binding

**Q.** Does B3 bind [7]?
**A.** no binding

B4: scFv G2D11 mutant M2 (LAL-TFT) (scFv)
scFv: DVVMTQSHKFMSTSVGDRVSITCKASQDVGTAVAWYQQKPGQSPKLLIYWASTRHTGVPDRFTGSGSGTDFTLTISNVQSEDLADYFCQQYSSYPLTFGGGTKLEMKRGGGGSGGGGSGGGGSGGGGSQVQMQQSDAELVKPGASVKISCKASGYTFTDHAIHWVKRKPEQGLEWIGYISPGNDDIKYNEKFKGKATLTADKSSSTAYMQLNSLTSEDSAVYFCKRSLLALDYWGQGTTLTVSS
notes: also called LAL+TFT mutant M2
**Q.** Does B4 bind [5]?
**A.** no binding

B5: scFv G2D11 mutant M4 (TFT-G) (scFv)
scFv: DVVMTQSHKFMSTSVGDRVSITCKASQDVGTAVAWYQQKPGQSPKLLIYWASTRHTGVPDRFTGSGSGTDFTLTISNVQSEDLADYFCQQYSSYPLTFGGGTKLEMKRGGGGSGGGGSGGGGSGGGGSQVQMQQSDAELVKPGASVKISCKASGYTFTDHAIHWVKRKPEQGLEWIGYISPGNGDIKYNEKFKGKATLTADKSSSTAYMQLNSLTSEDSAVYFCKRSLPGTFDYWGQGTTLTVSS
notes: The only mutant without LAL; also called TFT mutation only
**Q.** Does B5 bind [6]?
**A.** no binding

B6: scFv C4-STnMUC1 (scFv)
scFv: IVMTQSPSSLAVSAGEKVTMSCKSSQSLLNSRTRKNYLAWYQQKPGQSPKLLIYWASTRHTGVPDRFTGSGSGTDFTLTISNVQSEDLAEYFCQQYNSYPYTFGGGTKLEIKRGGGSGGGSGGGSGGGSGGGSQVQMQQSDAELVKPGASVKISCKASGYTFTDHAIHWVKRKPEQGLEWIGYISPGNDDIKYNEKFKGKATLTADKSSSTAYMQLNSLTSEDSAVYFCKRSLLALDYWGQGTTLTVSS
notes: From the STn-template library
**Q.** Does B6 bind [8]?
**A.** no binding

B7: scFv C7-STnMUC1 (scFv)
scFv: VVVTQTPLSLPVSLGDQASISCRSSQSLVHSNGNTYLHWYLQKPGQSPKLLIYKVSNRFSGVPDRFSGSGSGTDFTLKISRVEAEDLGVYFCSQSTHVPRTFGGGTKLEIKRGGGSGGGSGGGSGGGSGGGSQVQMQQSDAELVKPGASVKISCKASGYTFTDHAIHWVKRKPEQGLEWIGYISPGNDDIKYNEKFKGKATLTADKSSSTAYMQLNSLTSEDSAVYFCKRSLLALDYWGQGTTLTVSS
notes: From the STn-template library
**Q.** Does B7 bind [9]?
**A.** no binding

B8: scFv D3-STnMUC1 (scFv)
scFv: IVMTQSPSSLAVSAGEKVTMSCKSSQSLLNSRTRKNYLAWYQQKPGQSPKLLIYWASTRHTGVPDRFTGSGSGTDFTLTISNVQSEDLAEYFCQQYNSYPYTFGGGTKLEIKRGGGSGGGSGGGSGGGSGGGSQVQMQQSDAELVKPGASVKISCKASGYTFTDHAIHWVKRKPEQGLEWIGYISPGNDDIKYNEKFKGKATLTADKSSSTAYMQLNSLTSEDSAVYFCKRSLLALDYWGQGTTLTVSS
notes: From the STn-template library
**Q.** Does B8 bind [10]?
**A.** no binding
